Consider one molecule from patent US20210340232A1, “MONOCLONAL ANTIBODIES AGAINST HUMAN DICKKOPF3 AND USES THEREOF” (Board of Regents, The University of Texas System, priority 2018, published 2021).

The target of assay [1] is murine DKK3 (Mus musculus, UniProt Q9QUN9). In words: Non-denaturing Western blot of recombinant DKK3 with JM6-6-1. In kind it is binding. How it is done:
(§1) FIGS. 12A-D. DKK3 expression in mouse PSCs and effects of treatment with DKKC mAb on survival. (FIG. 12A) Western blot analysis of recombinant human and mouse DKK3 under denaturing and non-denaturing conditions using JM6-6-1 mAb. (FIG. 12B) Expression of murine DKK3 in murine PSCs (MPSC) or 3T3 cells was determined by RT-PCR. 18S was used as loading control. (FIG. 12C) Proliferation of MPSCs treated with DKK3 mAb was measured at 7 days by MTS assay. ***p<0.001 vs. PBS. (FIG. 12D) Pdx1-Cre; Kras LSL-G12D;Trp53fl/+ model of PDAC was treated with DKK3 mAb JM6-6-1 or control mAb JM4-74 (5 mg/kg i.p. q5d). Kaplan-Meier survival curves are shown (log rank test). At 0% survival, the right line is JM6-6-1, the middle lines is PBS, and the left line is Control Ab.
Human and murine DKK3 share 83% protein sequence homology by BLAST analysis and therefore it was anticipated that it was likely that JM6-6-1 could cross-react with host DKK3. […] When KPC mice (P48-Cre; Kras^LSL-G12D;Trp53^fl/fl) were treated with JM6-6-1 (red solid line, FIG. 5H), median survival increased by 43% from 43 to 61.5 days compared to PBS or isotype control mAb (p=0.005, HR 0.24, 95% CI 0.01-0.30; FIG. 5H).

Assay [2] deals with BxPC3 cells. The experiment in a line: BxPC3 resistance to gemcitabine, MTS proliferation assay. In kind it is cell-based, human. Particulars: BxPC3, gemcitabine 100 μM, HPSC-CM 10 μg/ml, 6 days. The procedure: HPSCs and BxPC3 cells were treated with DKK3 mAb clones JM6-6-1 and JM8-12-1 or isotype control mAb or PBS. (FIGS. 5A-B) HPSC apoptosis and migration as measured by FACS and Transwell migration assay at 48 hours. (FIG. 5C) BxPC3 migration in response to rhDKK3 10 μg/ml as measured by Transwell migration assay at 48 hours. (FIG. 5D) BxPC3 resistance to gemcitabine 100 μM as measured by MTS proliferation assay at 6 days. HPSC-CM, pancreatic stellate cell conditioned media, 10 μg/ml. The orthotopic co-injection BxPC3+ HPSC model of PDAC was used to test the efficacy of DKK3 mAb clones JM6-6-1 or JM8-12-1 (5 mg/kg i.p. once every 5 days). (FIG. 5E) Overall tumor progression was measured every 3-4 days by IVIS imaging. (FIG. 5F) Metastatic tumors in the peritoneal cavity after removal of the primary pancreatic tumor are shown by IVIS imaging. (FIG. 5G) Kaplan Meier survival curve showing mice treated with DKK3 mAb clone JM8-12 (right-most line), control mAb (middle line), or PBS (left-most line). (FIG. 5H) KPC mice (P48-Cre; Kras LSL-G12D;Trp53fl/fl) with either wild type DKK3 (solid lines) or deficient in DKK3 (“DKK3-KO,” dashed lines) were treated with DKK3 mAb JM6-6-1 (5 mg/kg i.p. once every 5 days), PBS or control mAb. […]
Cell-based assays. Cell proliferation was measured by the MTS assay (Promega, Madison, Wis.). […]

In assay [3] the test system is Pdx1-Cre GEMM model of PDAC. The experiment in a line: Survival in Pdx1-Cre GEMM model of PDAC. In kind it is in vivo, mouse. Particulars: 5 mg/kg i.p. q5d. The procedure:
as §1
Two GEMMs of PDAC that differ in the pancreas-specific promoter to target oncogenic Kras expression (Hingorani et al., 2005; Hingorani et al., 2003) were used in the experiments to evaluate the effect of DKK3 neutralizing mAb (Pdx1-Cre; Kras^LSL-G12D; Trp53^R172H/+ and P48-Cre; Kras^LSL-G12D; Trp53^fl/fl). To evaluate the effects of genetic ablation of DKK3 on pancreatic cancer development, DKK3-null mice were crossed to P48-Cre; Kras^LSL-G12D;Trp53^R172H or P48-Cre; Kras^LSL-G12D; Trp53^fl/fl mice (Hingorani et al., 2005; Hingorani et al., 2003), and the progeny were monitored until they were moribund. […]

murine DKK3, sequence (Q9QUN9 23-349): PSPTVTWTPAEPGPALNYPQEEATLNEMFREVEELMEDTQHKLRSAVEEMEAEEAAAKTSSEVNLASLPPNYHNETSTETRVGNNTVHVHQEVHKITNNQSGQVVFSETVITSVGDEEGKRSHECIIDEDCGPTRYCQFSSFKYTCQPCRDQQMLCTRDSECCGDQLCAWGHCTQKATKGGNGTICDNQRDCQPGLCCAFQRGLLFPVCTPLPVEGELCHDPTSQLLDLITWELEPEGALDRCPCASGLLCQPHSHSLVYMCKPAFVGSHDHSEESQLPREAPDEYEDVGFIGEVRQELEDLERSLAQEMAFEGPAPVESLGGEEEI

B1: JM6-6-1: monoclonal antibody against human DKK3; heavy chain variable SEQ ID NO: 19, light chain variable SEQ ID NO: 20 (antibody, V domains shown)
VH: EVKLVESGGGLVKPGGSLKLSCAASGFTFTIEYMAWIRQTPEKRLEWVASISSGGDDIYYADNVKGRFTISRDNAKNTLYLQMSSLKSEDTAIYYCSRSLSDWGQGTTLTVSSAKTTPPSDYPLA
VL: MTQTPLSLPVSLGDQASISCRSSQSILHSNGHTYLEWYLQKPGQSPKLLIYKVSNRFSGVPDRFSGSGSGTDFTLKISRVEAEDLGVYYCFQGSHVPFTFGSGTKLEIERADAAQ
For B1, the “cross-reactivity with murine DKK3” value in assay [1] is recorded as “recognizes murine DKK3 although more weakly than human DKK3”. Besides, the “effect on DKK3-mediated chemoresistance to gemcitabine” value in assay [2] was “abrogated the DKK3-mediated induction of chemoresistance to gemcitabine”. In addition, the effect on survival entry in assay [3] is on record as “equally effective”.
